According to the supplement of paper PMC9170038:

Tested on: MS2 coat protein
Assay: apparent KD of MS2 coat protein; designed switch direction (-1 OFF switch, 1 ON switch): -1; higher = weaker reporter binding
Method in brief: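 Designed RNA switches with common flanks were made on Illumina chips by stalled E. coli RNA polymerase. Titration with SNAP-549-labelled MS2 coat protein doubled from 0.7 or 1.5 nM up to 3 µM. Apparent KD is each design's median over clusters after curve-fitting normalised fluorescence.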

[1] = input ligand: microRNA oligo, concentration not stated
[2] = Eterna round: R95, input ligand: microRNA oligo, concentration not stated
[3] = Eterna round: R95, input ligand: FMN 200 uM
[4] = Eterna round: R95, input ligand: none

Row | Sequence | apparent KD of MS2 coat protein [1] [nM] | apparent KD of MS2 coat protein (input ligand: FMN 200 uM) [nM] | apparent KD of MS2 coat protein (input ligand: none) [nM] | apparent KD of MS2 coat protein [2] [nM] | apparent KD of MS2 coat protein [3] [nM] | apparent KD of MS2 coat protein [4] [nM]
1 | UAUAUAUAGUAAGGAUAUGUAUAUAUUUAAUAAACAGAAGGUACUGACAUGAGGAUCACCCAUGUUUUAGUGUGGGCAUGUAGA [JMF's solution 63] (Eterna round: R96, puzzle: Exclusion NG 1) | 59.9 | – | – | – | – | –
2 | UCGCUGCGAGGAUAUACAUGAGGAUCACCCAUGUGCGGGUCCGGGUCUUCGUCCAUUAGUAGAAGGCGCAGUGA [JL Laongeedie mod 4] (Eterna round: R96, puzzle: Exclusion 3) | 112 | 705 | 119 | – | – | –
3 | GCAAGCUUUAUCACUAUGAACAUGAGGAUCACCCAUGUAUAAGGUAUUACUUUUGGGCCCUUUAGUGCUCGUCUUAU [JR_STOV1_Sub032] (Eterna round: R97, puzzle: Sensor, turn-off variant 1) | – | 29.8 | 29.3 | – | – | –
4 | AAGUUACAUGAGGAUCACCCAUGUGAGGAUAUGAGUCAGUCACGGUGACGUGGCUGACUCAGAAGGCACAAUGG [JL-ex1-4.41 salish99 mod] (Eterna round: R97, puzzle: Exclusion 1) | – | 43 | 290 | – | – | –
5 | UGUACGCGAGGAUAUACAUGAGGAUCACCCAUGUCAUAUGAAAUGUAAUGAGUAGCGGGUAGAAGGCGCUUUUG [Eternabot (L2) Solution 26] (Eterna round: R97, puzzle: Exclusion 3) | – | 21.8 | 31.3 | – | – | –
6 | AUAUUGUGAGGAUAUGAAGUUAGUAUCGAAAGAUACUAAGUUCAGAAGGCACAUGAGGAUCACCCAUGUUUCUC [Long static hairpin v4] (Eterna round: R97, puzzle: Exclusion 4) | – | 710 | 71.5 | – | – | –
7 | UUUUUACAUGAGGAUCACCCAUGUCAGGAUAUGCUUAUAUUUUAUUAUUUUAUUUUUUGCAGAAGGGACUAUUA [My solution] (puzzle: Exclusion 1) | – | – | – | 80 | – | –
8 | GCGUUCUGAGGAUAUACAUGAGGAUCACCCAUGUUGAGAAGAAAGUAUAAAAGAUUGUGUAGAAGGCAGAGUGC [JR_Ex3_Sub070] (Eterna round: R97, puzzle: Exclusion 3) | – | 112 | 38.4 | – | – | –
9 | AAAAGGUCAGGAUAUGCUUGGCGGAUUCUGGUAUCCAAAUGACAUGAGGAUCACCCAUGUAGAAGGGACAUCAG [Maanlesoge] (Eterna round: R97, puzzle: Exclusion 2) | – | 21.8 | 20.6 | – | – | –
10 | AAAUAACAAGCAGGAUCCUACAUGAGGAUCACCCAUGUGCUCGUCUUAUAAAGUACUAUCACGAAAGUGAUAGUACU [Mat - Sensor v3 - turn-off var 1 - Eli Mod - D72] (puzzle: Sensor v3, turn-off variant 1) | – | – | – | 93 | 153 | 156
11 | UCGAGGUCAGGAUAUACAUGAGGAUCACCCAUGUGGAUGUAAGGUAGGAGAAGAGUAGGUAGAAGGGACGAGAG [JR_Exclu3_Sub049] (puzzle: Exclusion 3) | – | – | – | 37.8 | 46.7 | 55.4
12 | AGUCCUGGAGUUAGGAUAUGGAGUAUCACUGCACUUCAGAAGGGACUUGAGGAUCACCCAAGUAGCCGUGAGGG [salish99_bmod_ex4_r4_004] (Eterna round: R97, puzzle: Brourd's mod of Exclusion 4) | – | 74.3 | 49.2 | – | – | –
13 | AACCUACAUGAGGAUCACCCAUGUGAGGAUAUAUUGUUAUUUAUAAUAUUUUUUAGUGGUAGAAGGCGCGUGAU [JR_Exc1_Sub019] (Eterna round: R97, puzzle: Exclusion 1) | – | 21 | 18.5 | – | – | –
14 | UUAUUAAAUGUAGGAUAUGCAUAUUAUUAUUAUGCAGAAGGACAUGAGGAUCACCCAUGUAUAUUAUUAUUAUUUAUUAUAUAU [Title] (Eterna round: R96, puzzle: Exclusion NG 1) | 36.1 | – | – | – | – | –
15 | GAGAGAUAGAUAGAGGACGACAUGAGGAUCACCCAUGUGAGGGAAAUGUUAAGGAGAAAGCUUUUUGCUCGUCUUAA [JR_SV3TOV1_Sub034] (puzzle: Sensor v3, turn-off variant 1) | – | – | – | 57.7 | 123 | 152
16 | AUCAGCUCGUCAGGAUAUACAUGCGUGCUUCGGCACGAAUUUAAGAUCACAUGAGGAUCACCCAUGUAGAAGGGACGAGCUGAU [ENG2/3-B3] (Eterna round: R96, puzzle: Exclusion NG 2) | 498 | 1270 | 526 | – | – | –
17 | AAACUCCUGACAACCAGGAACAUGAGGAUCACCCAUGUGGCGUGACUCAUACGGGCUUUUUGUUCGUUUUAUUCACG [Aleatxe] (puzzle: Sensor v3, turn-off variant 1) | – | – | – | 26.6 | 41 | 51
18 | GAUUGACAUGAGGAUCACCCAUGUGAGGAUAUCGGCUGGUACGUGUUGGCUUGCCUCUCGAGAAGGCGCAUAGG [Exclusion 1 V55] (puzzle: Exclusion 1) | – | – | – | 38.5 | 140 | 63.1
19 | UGUGCGUAUGUGAGGAUAUGCUGGUCCUUGGAUCAGCAGAAGGCACAUGAGGAUCACCCAUGUGGUGUCGUACC [salish99_Bmod_Ex4_002] (puzzle: Brourd's mod of Exclusion 4) | – | – | – | 243 | – | –
20 | AAUAACAAGCUGAUCCUCCACAUGAGGAUCACCCAUGUGUUCGUCUUGUAAAGUACUAUCACGAAAGUGAUAGUACA (Eterna round: R97, puzzle: Sensor, turn-off variant 1) | – | 984 | 1630 | – | – | –
21 | AUUUACAAGCUAAGAUCCUACAUGAGGAUCACCCAUGUGGUCCGGUGACGUGAGUCACCGGACUUAGCUCGUCUUGA [salish99_S_TOV1_R5_082] (Eterna round: R97, puzzle: Sensor, turn-off variant 1) | – | 32.9 | 36.8 | – | – | –
22 | CAGUACUGAGGAUAUACAUGAGGAUCACCCAUGUGUAGAUGAAAAUUAAUUUUAUUAUGUAGAAGGCGGUGCUG [JR_Ex3_Sub045] (Eterna round: R97, puzzle: Exclusion 3) | – | 85.1 | 23.3 | – | – | –
23 | AUAAAUCAUGUAGGAUAUGCGUGGCGAAGCUAUGCAGAAGGACAUGAGGAUCACCCAUGUUCUAGCGUCUGAGUACAGAUGCAA [Mat - Exclusion NG 1 - Mod of JL - D3] (Eterna round: R96, puzzle: Exclusion NG 1) | 18.5 | 72.5 | 22.9 | – | – | –
24 | AGCUUUUUGUUCGUCUUAUACAUGAGGAUCACCCAUGUAUUGGACCGCAUCGAUAGAUGUAGACCAAGAAGCAUGGG [Omdei Mir OFFv1 C5] (Eterna round: R97, puzzle: Sensor, turn-off variant 1) | – | 50.6 | 48.2 | – | – | –
25 | UGGUGUGCGAAGGAUAUGUAGGCUAUCAUGUCAAUAGAAGGUUGCACAUGAGGAUCACCCAUGUAAGCCACUUA [Eternabot (L1) Solution 17] (Eterna round: R97, puzzle: Exclusion 6) | – | 69.2 | 83 | – | – | –
26 | AAUUCCGUAGGAUAUGGGAACCGGGACAUGAGGAUCACCCAUGUGAAGGAUGUCCCAACACCAGAAGGACGCAGCA [EX5 A.14] (Eterna round: R97, puzzle: Exclusion 5) | – | 47 | 25.9 | – | – | –
